From patent US20250051407A1, “De novo designed sequence-specific DNA binding proteins” (University of Washington, priority 2023, published 2025)

Tests used:
[1] = test system: biotinylated target dsDNA with non-biotinylated competitor dsDNA; experiment: Yeast display competition assay with base-substituted competitor dsDNA; type: binding; conditions: all possible base mutations at each position of the competitor oligo
[2] = test system: synthetic promoter containing the designed DBP binding sites controlling YFP; experiment: Transcriptional repression assay (NOT gate, YFP) in E. coli; type: cell-based, Escherichia coli; conditions: IPTG induction (1 mM), flow cytometry
Excerpt: We next tested the ability of the designed DBPs to function in cells to regulate transcription. We constructed candidate NOT gates (38) to assay transcriptional repression in Escherichia coli, where the input is a designed DBP under control of the IPTG-inducible PTac promoter and the output is yellow fluorescent protein (YFP) expression driven by a promoter incorporating each DBP's DNA binding site. […] To increase avidity and bulk, we fused the DBPs to the homodimerization domain of the TetR protein (39), using RFdiffusion (40) and ProteinMPNN sequence design to generate rigid linkers that orient the DBP domain of each dimer unit on a DNA target containing two palindromic binding sites. For DBPs 48, 69, and 57, we selected 96 TetR fusions for experimental characterization in the NOT gate circuit. Upon initial screening, we observed modest repression for several designs and selected two for further validation (one incorporating DBP48, the other DBP57) (FIG. 8). […]

B1: DBP48: designed DNA-binding protein, SEQ ID NO: 22, DNA target D (protein)
chain: MTPEEIAEAKRIGKEVKERRKELGLTQRELAEKLGVSRSTVSDIENGRRLPSEELLKKIKEILGV
[1]
  DNA binding site specificity: specificities consistent with the designed sidechain-base interactions
[2]
  Fold repression of YFP by single DBP domains and tandem linked DBP domains: not observed
